This series is described as follows: yeast display, Sf9 membrane polyspecificity reagent, FACS + sequencing; frameworks hold sequencing errors. In outline:
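Galactose-induced (36–48 hours) yeast carrying a synthetic nanobody display library were exposed to 10% biotinylated, detergent-solubilized Sf9 membrane reagent at 4 °C for 1 hour. FACS followed streptavidin microbead enrichment, using low and high (top ~1%) gates for expression (anti-HA) and reagent binding (streptavidin). Colony PCR, MiSeq 2 × 250 sequencing and CDR-length filtering followed. Labels for polyreactivity reflect the gate of origin.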
Turning to “QVQLVESGGGLVQAGGRLRLSCAASGRIFDPYAMGWCRQAPGKESELVASISWSGGRTYYADSVKGRFTISRDNAKNTVYLQMNSLKPEDTAVYYCAAREWYRYKVRFDYWGQGTQVTVSS”, the “polyreactivity (PSR sort gate)” value is “high polyreactivity”.

Take “QVQLVESGGGLVQAGGRLRLSCAASGRIFFYYAMGWYRQAPGKERELVAAITSGGNTNYADSVKGRFTISRDNAKNTVYLQMNSLKPEDTAVYYCNKDLYADGQYNYDYWGQGTQVTVSS”: the “polyreactivity (PSR sort gate)” value is “low polyreactivity”.

As for “QVQLVESGGGLVQAGGRLRLSCAASGRIFGFNAMGWYRQAPGKERELVAAIDGNDASTFYADSGKGRFTISRDNAKNTDYFQMNSLKPEDTAVYYCAAESSYVYLGWREYWGQGTQVTVSS”, the “polyreactivity (PSR sort gate)” value was “high polyreactivity”. Regarding “QVQLVESGGGLVQAGGRLRLSCAASGRIFGSYAMGWYRQAPGKERELVAAITFSGVNTYYADSVKGRFTISRDNAKNTVYLQMNRLKPEDTAVYYCAVRGPEAEYDYWGQGTQVTVSS”, the “polyreactivity (PSR sort gate)” value was “high polyreactivity”. As for “QVQLVESGGGLVQAGGRLRLSCAASGRIFKPNAMGSYRQAPGKEREFVARITRNTGSTYYADSVKGRFSISRDNEKNTVYLQMNSLKPEDNAVYDCAAGAPSYYYYWGHGTQVTVSS”, the “polyreactivity (PSR sort gate)” value is “high polyreactivity”. Next, “QVQLVESGGGLVQAGGRLRLSCAASGRIFPVNAMGWYRQAPGKERELVAGITWSGDGSTYYADSVKGRFTISRDNAKNTVYLQMNSLKPEDTAVYYCAARLNLQGRYDYSGQGTQVTVSS”: “low polyreactivity”; “QVQLVESGGGLVQAGGRLRLSCAASGRIFTRYAMGWYRQAPGKERELVAAINYRGSSTYYADSVKGRFTISRDNAKNTVYLQMNSLKPEDTAVYYCNTYGQTDTYWRYYYWGQGTQVTVSS”: “high polyreactivity”.

For the sequence “QVQLVESGGGLVQAGGRLRLSCAASGRIFYFNAMGWYRQAPGKEREFVASINSIGDSTYYADSVKGRFTISRDNAKNTVYLQMNSLKPEDTAVYYCNADHGVINYRLDYWGQGTQVTVSS”, the “polyreactivity (PSR sort gate)” value is given as “low polyreactivity”.

As to “QVQLVESGGGLVQAGGRLRLSCAASGRIFYNYAMGWYRQAPGKERELVAAISGSGGSTYYADSVKGRFTISRDNAKNTVYLQMNCLKPDDTAVYYCSTSGPQYYSRNFDYWGQGTQVTVSS”, the “polyreactivity (PSR sort gate)” value was “low polyreactivity”. Next, “QVQLVESGGGLVQAGGRLRLSCAASGRIFYVYAMGGYRQAPGKERELVAAISRGGSTNSADSVKGRFTISRDNAKNTVYLQMNSLKPEDTAVYYCAASSLPHYSYRHSYLYVYWGQCTQVTVSS”: “low polyreactivity”; “QVQLVESGGGLVQAGGRLRLSCAASGRIYRRNTMGWYRQAPGKERELVAAITSSGGSTYADSVKGRFTISRDNAKNTVYLQMNSLKPEDTAVYYCATYVAYHRGYRTYDHWGQGTQVTVSS”: “low polyreactivity”; “QVQLVESGGGLVQAGGRLRLSCAASGRTFAYYAMGWYRQAPGKERELVASITTRDGSTYYADSVKGRFTISRDNAKNTVYLQMNSLKPEDTAVYYCAAATEYSSGYEYDYWGQGTQVTVSS”: “low polyreactivity”.

Consider “QVQLVESGGGLVQAGGRLRLSCAASGRTFRRYTMGWDRQAPGKERELVAANTSGGRTNYADSVKGRFTISRDNAKNTVYLQMNSLKPEDTAVYYCNAQNEIWRVTFSPYDRWGYDYWGQGTQVTVSA”, for which the “polyreactivity (PSR sort gate)” value is reported as “low polyreactivity”. Next, “QVQLVESGGGLVQAGGRLRLSCAASGRTFTPNAMGWYRQAPGKERELVAAIDWRGGRTYYADSVKGRFTISRDNAKNTVYLQMNSLKPEDTAVYYCAARVDGYHYKSAGYSYGVYYWGQGTQVTVSS”: “low polyreactivity”; “QVQLVESGGGLVQAGGRLRLSCAASGRTFYRNAMGWYRQAPGKERELVAGISVRGGRTYYADSVKGRFTISRDNAKNTVYLQMNSLKPEDTAVYYCNKRLSSSLSLKYDYWGQGTQVTVSS”: “high polyreactivity”. The same measure for “QVQLVESGGGLVQAGGRLRLSCAASGRTFYSNAMGWYSQAPGKERELVAAITFGGGSTYYADSVKGRFTISRDNAKNTVYLQMNSLKPEDTAVYYCAAEGYKYRFYYWGQGTQVTVSS”: “low polyreactivity”; for “QVQLVESGGGLVQAGGRLRLSCAASGRTFYSYTMGWYRPAPGKERELVAAIRYSGDRTYYADSVKGRFTISRDNAKNTVDLQMNSLKPEDTAVYYCGKAAPYPGSFYYWGQGTQVTVSS”: “low polyreactivity”; for “QVQLVESGGGLVQAGGRLRLSCAASGRTIPYYAMGWSRQSPGKDREFVAAISGGGGSTHYADSVKGRFTISRDNAKNTVYLQMNSLKPEDTAVYYCNADKYSVYGEHPYDYWGQGSQVTVSS”: “low polyreactivity”. Next, “QVQLVESGGGLVQAGGRLRLSCAASGRTIYGYDKGWYRQAPGKERELVAAINIGGRTNYADSVKGRFTISRDNAKNTVYLQMNSLKPEDTAVYYCADRYTFGPYLARSYGYWGQGTQVTVSS”: “low polyreactivity”. As to “QVQLVESGGGLVQAGGRLRLSCAASGRTLVSNAMGWYRQAPGKERELVAAITYSGGSTYYADSVKGRFTISRDNAKNTVYLQMNSLKPEDTAVYYCAKVGRLYRVGGYDYWGQGTQVTVSS”, the “polyreactivity (PSR sort gate)” value was “low polyreactivity”.

On to “QVQLVESGGGLVQAGGRLRLSCAASGRTLWIYAMGWYRQAPGKERELVASITTRGGSTYYADSVKGRFTISRDNAKNTVYLQMKSLKPEDTAVYYCAAEGYTYYTYDPHDYWGQGTQVTVSS”, for which the “polyreactivity (PSR sort gate)” value is “high polyreactivity”.

For the sequence “QVQLVESGGGLVQAGGRLRLSCAASGRTMGWYRQAPGKERELVAAISSGGGSTYYADSVKGRFTISRDNAKNTVYLQMNSLKPEDTAVYYCARTTIAQLHSIVAPHDYWGQGTQVTVSS”, the “polyreactivity (PSR sort gate)” value is “low polyreactivity”. Next, “QVQLVESGGGLVQAGGRLRLSCAASGSIFAGYAMGWYRQAPGKERELVAASSTDYADSVKGRFTISRDNAKNTVYLHMNSLKPEDTAVYYCAKVGFGIPGGFYYWGQGTQVTVSS”: “low polyreactivity”; “QVQLVESGGGLVQAGGRLRLSCAASGSIFASYALGWYRQAPGKERELVAVITRSGGSTYYADSVKGRFTISRDNAKNTVYLQMNSLKPEDTAVYYCAAQYGRTYYSRREYWGQGTQVTVSS”: “high polyreactivity”; “QVQLVESGGGLVQAGGRLRLSCAASGSIFDSYVMGWYRQAPGKERELVAAITYSGGSTYADSVKGRFTISRDNAKNTVYLEMNSLKPEDTAVYYCAAASYFYLYLLEDYWGQRTQVTVSS”: “low polyreactivity”.

As for “QVQLVESGGGLVQAGGRLRLSCAASGSIFIGYAMGWYRQAPGKERELVATISGSGGSTYYADSEKGRFTISRDNAKNTVSLQMNSLKPEDSAVYYCAAVSVSSWYDYWGQGTQVTVSS”, the “polyreactivity (PSR sort gate)” value was “low polyreactivity”. Next, “QVQLVESGGGLVQAGGRLRLSCAASGSIMDTNAMGWYRQAPGKERELVARIDIDGSTNYADSVKGRFTISRDNAKKTVYLQMNSLKPEDTAVYYCNKDHSSYGASGYDYWGQGTQVTVSS”: “low polyreactivity”; “QVQLVESGGGLVQAGGRLRLSCAASGSNFDIYALGWYRQAPGKERELVAAIRGRGGSTYYADSVKGRFTISRDNAKNTVYLQMNSLKPEDTAVYYCAARNSYGNWRYYYWGQGTQVTVSS”: “high polyreactivity”; “QVQLVESGGGLVQAGGRLRLSCAASGSTFATYAMGWYRQAPGKERELVAVISRSGGSTYYADSVKGRFTISRDNAKNTVYLQMNCLKPEDTAVYYCAARPRGKYDYRGQGTQVTVSS”: “high polyreactivity”. In the case of “QVQLVESGGGLVQAGGRLRLSCAASGSTFDYYTMGGYRQAPGKERELVAGITSGGSTNYADSVKGRFTISRDNAKNTVYLQMNSLKPADTAVYYCAARVSKYYKPYGYWGQGTQVTVSS”, the “polyreactivity (PSR sort gate)” value is reported as “high polyreactivity”. As to “QVQLVESGGGLVQAGGRLRLSCAASGSTFFKYDMGWYRQAPGKERELVAVITWSGGTTFYADSVKGRFTISRDNAKNTVYLQMNSLKPEDTAVYYCAADYYGYRYDYWGQGTQVTVSS”, the “polyreactivity (PSR sort gate)” value is listed as “low polyreactivity”. The same measure for “QVQLVESGGGLVQAGGRLRLSCAASGSTFGENVMGWYRQAPGKERELVAAISRGGSTYYADSVKGRFTISRDNAKNTVYLQMNSLKPEDTAVYYCAARTRSGPRYNYNYWGQGTQVTVSS”: “high polyreactivity”.

“QVQLVESGGGLVQAGGRLRLSCAASGSTFGLNAMGRYRHAPGKEREFVASINFNDGSTYYADSVKGRFTISRDNAKNTVYLRMNSLKPEDTAVYYCAVELWWKWPFYYWGQGTQVTVSS”: the “polyreactivity (PSR sort gate)” value is given as “high polyreactivity”. As to “QVQLVESGGGLVQAGGRLRLSCAASGSTFPYNAMGCYRQAPGKERELVAAITSTGDSTYYADSVKGRFTISRDKAKNTVYLQMNSLKPEDTAVYYCAARSYASPGWRYEYWGQGTQVTVSS”, the “polyreactivity (PSR sort gate)” value is “low polyreactivity”. The same measure for “QVQLVESGGGLVQAGGRLRLSCAASGSTFRRNAMGWYRQAPGKERELVATISPGARTNYADSVKGRFTISRDNAKNTVYLQMNSLKPEDTAVYYCNAEFTLLYPLYDYWGQGTQVTLSS”: “low polyreactivity”; for “QVQLVESGGGLVQAGGRLRLSCAASGSTFSSNAMGWYRQAPGKERELVAAITTSGGSTYYADSVKGRFTISRDNAKTTVYLQMNSLKPEDTAVYYCAADLVHAYQWSIFLYGYWGQGTQVTVSS”: “low polyreactivity”. Regarding “QVQLVESGGGLVQAGGRLRLSCAASGSTFVPYAMGWSRQAPGKERELVAGITWSGGRTYYADSVKGRFTISRDNAKNTVYFQLNSLKPEDTAVYYCNVEHLVYKYDGYYSRYYRLYYWGQGTHVTVSS”, the “polyreactivity (PSR sort gate)” value was “low polyreactivity”. Next, “QVQLVESGGGLVQAGGRLRLSCAASGSTFVRNAMGWYRQAPGKERELVAAITGTGDSTYYADSVKGRFTISRDNAKNTVYLQMNSLKPEDTAGYYCDANSDAYRYWYDYWGQGTQVTVSS”: “low polyreactivity”. The same measure for “QVQLVESGGGLVQAGGRLRLSCAASGSTLNRNAMGWYRQAPGKERELVAAIRVSGGSTYYSDSVKGRFTISRDNAKNTVYLQMNSLNPEDTAVYYCGTRYVRARWYGYWGEGTQVTVSS”: “high polyreactivity”; for “QVQLVESGGGLVQAGGRLRLSCAASGSTLPANAMGWYRQAPGKERELVSAITITTDGSTYYADSVKGRFTISRDNAKNTVYLQMNSLKPEDTAVYYCAVDRYRYHNRKMGYWGQGTEVTVSS”: “low polyreactivity”; for “QVQLVESGGGLVQAGGRLRLSCAASGSTSLYYAMGWYRQAPGKEREFVAAITWSGGSTYYADSGKGRFTITRDNAKNTVYLQMNSLKPEDTAVYYCAGRSYGYSAGYYWGQGTQVTVSS”: “high polyreactivity”.

For the origin of these results see the nanobody polyreactivity screen of Harvey et al. (2022).
